# Data: patent US20130315910A1 (Xencor, published 2013)
# B1: L235F/S239D/L328Y (antibody, human IgG1, kappa)
# heavy: EVQLVESGGGLVKPGGSLKLSCAASGYTFTSYVMHWVRQAPGKGLEWIGYINPYNDGTKYNEKFQGRVTISSDKSISTAYMELSSLRSEDTAMYYCARGTYYYGTRVFDYWGQGTLVTVSSASTKGPSVFPLAPSSKSTSGGTAALGCLVKDYFPEPVTVSWNSGALTSGVHTFPAVLQSSGLYSLSSVVTVPSSSLGTQTYICNVNHKPSNTKVDKKVEPKSCDKTHTCPPCPAPELFGGPDVFLFPPKPKDTLMISRTPEVTCVVVDVSHEDPEVKFNWYVDGVEVHNAKTKPREEQYNSTYRVVSVLTVLHQDWLNGKEYKCKVSNKAYPAPIEKTISKAKGQPREPQVYTLPPSREEMTKNQVSLTCLVKGFYPSDIAVEWESNGQPENNYKTTPPVLDSDGSFFLYSKLTVDKSRWQQGNVFSCSVMHEALHNHYTQKSLSLSPGK
# light: DIVMTQSPATLSLSPGERATLSCRSSKSLQNVNGNTYLYWFQQKPGQSPQLLIYRMSNLNSGVPDRFSGSGSGTEFTLTISSLEPEDFAVYYCMQHLEYPITFGAGTKLEIKRTVAAPSVFIFPPSDEQLKSGTASVVCLLNNFYPREAKVQWKVDNALQSGNSQESVTEQDSKDSTYSLSSTLTLSKADYEKHKVYACEVTHQGLSSPVTKSFNRGEC
# notes: HuAM4G7 anti-CD19 IgG1 (m1) with these Fc substitutions, EU index; copies: 2 + 2
# B2: S239D/H268D/L328F/I332E (antibody, human IgG1, kappa)
# heavy: EVQLVESGGGLVKPGGSLKLSCAASGYTFTSYVMHWVRQAPGKGLEWIGYINPYNDGTKYNEKFQGRVTISSDKSISTAYMELSSLRSEDTAMYYCARGTYYYGTRVFDYWGQGTLVTVSSASTKGPSVFPLAPSSKSTSGGTAALGCLVKDYFPEPVTVSWNSGALTSGVHTFPAVLQSSGLYSLSSVVTVPSSSLGTQTYICNVNHKPSNTKVDKKVEPKSCDKTHTCPPCPAPELLGGPDVFLFPPKPKDTLMISRTPEVTCVVVDVSDEDPEVKFNWYVDGVEVHNAKTKPREEQYNSTYRVVSVLTVLHQDWLNGKEYKCKVSNKAFPAPEEKTISKAKGQPREPQVYTLPPSREEMTKNQVSLTCLVKGFYPSDIAVEWESNGQPENNYKTTPPVLDSDGSFFLYSKLTVDKSRWQQGNVFSCSVMHEALHNHYTQKSLSLSPGK
# light: DIVMTQSPATLSLSPGERATLSCRSSKSLQNVNGNTYLYWFQQKPGQSPQLLIYRMSNLNSGVPDRFSGSGSGTEFTLTISSLEPEDFAVYYCMQHLEYPITFGAGTKLEIKRTVAAPSVFIFPPSDEQLKSGTASVVCLLNNFYPREAKVQWKVDNALQSGNSQESVTEQDSKDSTYSLSSTLTLSKADYEKHKVYACEVTHQGLSSPVTKSFNRGEC
# notes: as for B1
# B3: S239D/H268D/L328W (antibody, human IgG1, kappa)
# heavy: EVQLVESGGGLVKPGGSLKLSCAASGYTFTSYVMHWVRQAPGKGLEWIGYINPYNDGTKYNEKFQGRVTISSDKSISTAYMELSSLRSEDTAMYYCARGTYYYGTRVFDYWGQGTLVTVSSASTKGPSVFPLAPSSKSTSGGTAALGCLVKDYFPEPVTVSWNSGALTSGVHTFPAVLQSSGLYSLSSVVTVPSSSLGTQTYICNVNHKPSNTKVDKKVEPKSCDKTHTCPPCPAPELLGGPDVFLFPPKPKDTLMISRTPEVTCVVVDVSDEDPEVKFNWYVDGVEVHNAKTKPREEQYNSTYRVVSVLTVLHQDWLNGKEYKCKVSNKAWPAPIEKTISKAKGQPREPQVYTLPPSREEMTKNQVSLTCLVKGFYPSDIAVEWESNGQPENNYKTTPPVLDSDGSFFLYSKLTVDKSRWQQGNVFSCSVMHEALHNHYTQKSLSLSPGK
# light: DIVMTQSPATLSLSPGERATLSCRSSKSLQNVNGNTYLYWFQQKPGQSPQLLIYRMSNLNSGVPDRFSGSGSGTEFTLTISSLEPEDFAVYYCMQHLEYPITFGAGTKLEIKRTVAAPSVFIFPPSDEQLKSGTASVVCLLNNFYPREAKVQWKVDNALQSGNSQESVTEQDSKDSTYSLSSTLTLSKADYEKHKVYACEVTHQGLSSPVTKSFNRGEC
# notes: as for B1
# B4: S239D/H268D/L328W/I332E (antibody, human IgG1, kappa)
# heavy: EVQLVESGGGLVKPGGSLKLSCAASGYTFTSYVMHWVRQAPGKGLEWIGYINPYNDGTKYNEKFQGRVTISSDKSISTAYMELSSLRSEDTAMYYCARGTYYYGTRVFDYWGQGTLVTVSSASTKGPSVFPLAPSSKSTSGGTAALGCLVKDYFPEPVTVSWNSGALTSGVHTFPAVLQSSGLYSLSSVVTVPSSSLGTQTYICNVNHKPSNTKVDKKVEPKSCDKTHTCPPCPAPELLGGPDVFLFPPKPKDTLMISRTPEVTCVVVDVSDEDPEVKFNWYVDGVEVHNAKTKPREEQYNSTYRVVSVLTVLHQDWLNGKEYKCKVSNKAWPAPEEKTISKAKGQPREPQVYTLPPSREEMTKNQVSLTCLVKGFYPSDIAVEWESNGQPENNYKTTPPVLDSDGSFFLYSKLTVDKSRWQQGNVFSCSVMHEALHNHYTQKSLSLSPGK
# light: DIVMTQSPATLSLSPGERATLSCRSSKSLQNVNGNTYLYWFQQKPGQSPQLLIYRMSNLNSGVPDRFSGSGSGTEFTLTISSLEPEDFAVYYCMQHLEYPITFGAGTKLEIKRTVAAPSVFIFPPSDEQLKSGTASVVCLLNNFYPREAKVQWKVDNALQSGNSQESVTEQDSKDSTYSLSSTLTLSKADYEKHKVYACEVTHQGLSSPVTKSFNRGEC
# notes: as for B1
# B5: L328Y/I332E (antibody, human IgG1, kappa)
# heavy: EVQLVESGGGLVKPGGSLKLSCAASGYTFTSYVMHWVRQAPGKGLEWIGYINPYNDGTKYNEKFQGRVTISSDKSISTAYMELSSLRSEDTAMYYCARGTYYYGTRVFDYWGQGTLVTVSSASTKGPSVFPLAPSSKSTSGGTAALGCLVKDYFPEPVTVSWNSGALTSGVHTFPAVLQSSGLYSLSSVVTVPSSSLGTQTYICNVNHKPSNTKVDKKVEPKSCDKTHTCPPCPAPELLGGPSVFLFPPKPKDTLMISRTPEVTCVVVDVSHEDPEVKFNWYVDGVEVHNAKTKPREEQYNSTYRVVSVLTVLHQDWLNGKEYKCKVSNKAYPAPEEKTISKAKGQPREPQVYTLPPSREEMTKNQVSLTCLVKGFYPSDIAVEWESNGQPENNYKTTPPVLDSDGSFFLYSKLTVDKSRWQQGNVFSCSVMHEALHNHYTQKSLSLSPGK
# light: DIVMTQSPATLSLSPGERATLSCRSSKSLQNVNGNTYLYWFQQKPGQSPQLLIYRMSNLNSGVPDRFSGSGSGTEFTLTISSLEPEDFAVYYCMQHLEYPITFGAGTKLEIKRTVAAPSVFIFPPSDEQLKSGTASVVCLLNNFYPREAKVQWKVDNALQSGNSQESVTEQDSKDSTYSLSSTLTLSKADYEKHKVYACEVTHQGLSSPVTKSFNRGEC
# notes: as for B1
# B6: S239D/H268D/L328F (antibody, human IgG1, kappa)
# heavy: EVQLVESGGGLVKPGGSLKLSCAASGYTFTSYVMHWVRQAPGKGLEWIGYINPYNDGTKYNEKFQGRVTISSDKSISTAYMELSSLRSEDTAMYYCARGTYYYGTRVFDYWGQGTLVTVSSASTKGPSVFPLAPSSKSTSGGTAALGCLVKDYFPEPVTVSWNSGALTSGVHTFPAVLQSSGLYSLSSVVTVPSSSLGTQTYICNVNHKPSNTKVDKKVEPKSCDKTHTCPPCPAPELLGGPDVFLFPPKPKDTLMISRTPEVTCVVVDVSDEDPEVKFNWYVDGVEVHNAKTKPREEQYNSTYRVVSVLTVLHQDWLNGKEYKCKVSNKAFPAPIEKTISKAKGQPREPQVYTLPPSREEMTKNQVSLTCLVKGFYPSDIAVEWESNGQPENNYKTTPPVLDSDGSFFLYSKLTVDKSRWQQGNVFSCSVMHEALHNHYTQKSLSLSPGK
# light: DIVMTQSPATLSLSPGERATLSCRSSKSLQNVNGNTYLYWFQQKPGQSPQLLIYRMSNLNSGVPDRFSGSGSGTEFTLTISSLEPEDFAVYYCMQHLEYPITFGAGTKLEIKRTVAAPSVFIFPPSDEQLKSGTASVVCLLNNFYPREAKVQWKVDNALQSGNSQESVTEQDSKDSTYSLSSTLTLSKADYEKHKVYACEVTHQGLSSPVTKSFNRGEC
# notes: as for B1
# B7: P331S (antibody, human IgG1, kappa)
# heavy: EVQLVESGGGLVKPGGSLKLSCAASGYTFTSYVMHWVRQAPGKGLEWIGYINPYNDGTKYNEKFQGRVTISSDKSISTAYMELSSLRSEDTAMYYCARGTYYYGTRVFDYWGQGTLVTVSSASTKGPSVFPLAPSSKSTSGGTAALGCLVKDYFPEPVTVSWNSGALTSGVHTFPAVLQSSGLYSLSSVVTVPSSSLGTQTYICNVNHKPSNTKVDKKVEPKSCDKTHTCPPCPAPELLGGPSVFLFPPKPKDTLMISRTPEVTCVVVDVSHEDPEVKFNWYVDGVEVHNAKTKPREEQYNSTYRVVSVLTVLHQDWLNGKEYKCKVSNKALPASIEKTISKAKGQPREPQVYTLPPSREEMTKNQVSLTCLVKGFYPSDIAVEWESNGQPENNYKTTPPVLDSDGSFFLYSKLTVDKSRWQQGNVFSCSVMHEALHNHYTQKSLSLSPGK
# light: DIVMTQSPATLSLSPGERATLSCRSSKSLQNVNGNTYLYWFQQKPGQSPQLLIYRMSNLNSGVPDRFSGSGSGTEFTLTISSLEPEDFAVYYCMQHLEYPITFGAGTKLEIKRTVAAPSVFIFPPSDEQLKSGTASVVCLLNNFYPREAKVQWKVDNALQSGNSQESVTEQDSKDSTYSLSSTLTLSKADYEKHKVYACEVTHQGLSSPVTKSFNRGEC
# notes: HuAM4G7 anti-CD19 IgG1 (m1) with this Fc substitution, EU index; copies: 2 + 2
# What was measured:
# Test in all cases: SPR
# mFcγRIIb = molecular target: T1, mFcγRIIb (Mus musculus, UniProt P08101)
# T1 construct: extracellular region, C-terminal His- and GST-tag; also called mouse FcγRII
# T1 sequence (receptor extracellular region, looked up): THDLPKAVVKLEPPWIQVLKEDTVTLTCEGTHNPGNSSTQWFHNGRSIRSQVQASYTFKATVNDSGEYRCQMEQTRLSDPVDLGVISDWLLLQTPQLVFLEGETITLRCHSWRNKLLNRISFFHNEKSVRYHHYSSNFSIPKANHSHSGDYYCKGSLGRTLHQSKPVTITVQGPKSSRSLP
# Protocol: (§1) Variants were screened for receptor affinity using Biacore™ technology, also referred to as Biacore herein, a surface plasmon resonance (SPR) based technology for studying biomolecular interactions in real time. SPR measurements were performed using a Biacore 3000 instrument (Biacore, Piscataway, N.J.). A protein A/G (Pierce Biotechnology) CM5 biosensor chip (Biacore) was generated using a standard primary amine coupling protocol. All measurements were performed using HBS-EP buffer (10 mM HEPES pH 7.4, 0.15 M NaCl, 3 mM EDTA, 0.005% vol/vol surfactant P20, Biacore). Antibodies at 20 nM or 50 nM in HBS-EP buffer were immobilized on the protein A/G surface and FcγRs were injected. After each cycle, the surface was regenerated by injecting glycine buffer (10 mM, pH 1.5). Data were processed by zeroing time and response before the injection of FcγR and by subtracting appropriate nonspecific signals (response of reference channel and injection of running buffer). Kinetic analyses were performed by global fitting of binding data with a 1:1 Langmuir binding model using BIAevaluation software (Biacore).
# (§2) Variant antibodies were tested for their affinity to mouse or cynologous monkey FcγRs using Biacore SPR as described above. Specifically, antibodies were first immobilized on a protein A/G chip to high density, and then followed by injections of the extracellular domain of the mouse or cynologous monkey FcγR of interest. Both association and dissociation phases were tracked in real time using the Biacore technology.
# cynoFcγRIIb = molecular target: T2, cynoFcγRIIb (Macaca fascicularis, UniProt A0A140HDP4)
# T2 construct: extracellular region, C-terminal His- and GST-tag; also called cynomolgus monkey FcγRIIb
# T2 sequence (receptor extracellular region): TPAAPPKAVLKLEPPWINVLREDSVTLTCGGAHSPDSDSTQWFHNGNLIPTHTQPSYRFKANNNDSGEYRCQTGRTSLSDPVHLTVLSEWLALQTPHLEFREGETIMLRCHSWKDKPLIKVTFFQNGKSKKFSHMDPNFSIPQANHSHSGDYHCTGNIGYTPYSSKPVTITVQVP
# Protocol: as §1, §2
# [1] = molecular target: T3, human FcγRIIb receptor protein (R&D Systems) (human, UniProt P31994 46-217)
# T3 construct: Bought protein injected over captured antibody in Biacore; also called CD32b
# T3 sequence (looked up): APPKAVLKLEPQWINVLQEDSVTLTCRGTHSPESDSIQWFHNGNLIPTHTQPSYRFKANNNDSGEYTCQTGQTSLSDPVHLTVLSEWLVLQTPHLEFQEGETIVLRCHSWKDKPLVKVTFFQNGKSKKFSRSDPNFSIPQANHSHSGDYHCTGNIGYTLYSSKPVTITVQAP
Binder,Fold vs WT IgG1 (Kd) (mFcγRIIb) [fold],Fold vs WT IgG1 (Kd) (cynoFcγRIIb) [fold],Fold vs WT IgG1 [1] [fold],Kd [1] [nM]
B1,31.2,5.2,6.82,215
B2,2.59,27.6,53.2,27.6
B3,47.8,23.7,51.1,28.7
B4,4.81,4.55,27.8,52.7
B5,0.434,4.6,2.08,705
B6,6.01,3.17,8.79,167
B7,0.085,0.25,0.0372,39400
